# Data taken from patent publication US20180318386A1, “PEPTIDES AND METHODS OF TREATING ENDOMETRIOSIS USING THE SAME” (BIOINCEPT, LLC, priority 2014, published 2018).
# Assays:
# Assay in all cases: PIF affinity resin pull-down, CD8+ cell lysate, LC-MS/MS count
# [1] = molecular target: Serum deprivation-response protein (human) (UniProt O95810)
# Thymosin alpha-1 (human) = Thymosin alpha-1 (human) (UniProt P06454)
# [2] = molecular target: Serine/arginine-rich-splicing factor 1 (human) (UniProt Q07955)
# [3] = molecular target: Cartilage oligomeric matrix protein (human) (UniProt P49747)
# [4] = molecular target: Acidic leucine-rich nuclear phosphoprotein 32 family member A (human) (UniProt P39687)
# [5] = molecular target: Nuclease-sensitive element-binding protein 1 (Fragment) (human) (UniProt P67809)
# Calreticulin (human) = Calreticulin (human) (UniProt P27797)
# [6] = molecular target: Tropomyosin alpha-4 chain (human) (UniProt P67936)
# [7] = molecular target: Isoform 2 of Protein SET (human) (UniProt Q01105)
# Cofilin-1 (human) = Cofilin-1 (human) (UniProt P23528)
# Thrombospondin-1 (human) = Thrombospondin-1 (human) (UniProt P07996)
# [8] = molecular target: Isoform 2 of Heat shock protein HSP 90-alpha (human) (UniProt P07900)
# [9] = molecular target: Actin, cytoplasmic 1 (human) (UniProt P60709)
# Nucleolin (human) = Nucleolin (human) (UniProt P19338)
# [10] = molecular target: 14-3-3 protein zeta/delta (human) (UniProt P63104)
# Serum albumin (human) = Serum albumin (human) (UniProt P02768)
# Chain of Serum deprivation-response protein (human) (O95810 2-425 limits assumed): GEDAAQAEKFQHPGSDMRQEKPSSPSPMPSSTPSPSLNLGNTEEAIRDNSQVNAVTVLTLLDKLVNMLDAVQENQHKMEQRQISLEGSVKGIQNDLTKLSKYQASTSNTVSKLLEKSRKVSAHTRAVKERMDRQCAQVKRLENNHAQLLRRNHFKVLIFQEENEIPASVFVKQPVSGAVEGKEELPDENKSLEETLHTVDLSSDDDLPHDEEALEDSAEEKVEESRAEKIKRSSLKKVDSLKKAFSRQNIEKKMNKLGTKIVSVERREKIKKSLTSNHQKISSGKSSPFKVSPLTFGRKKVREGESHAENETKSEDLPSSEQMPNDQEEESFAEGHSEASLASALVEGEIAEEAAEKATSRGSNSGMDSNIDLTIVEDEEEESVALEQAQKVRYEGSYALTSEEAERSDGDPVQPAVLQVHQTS
# Chain of Isoform 2 of Protein SET (human) (Q01105 other isoform, or with tags, fused parts or gaps limits assumed): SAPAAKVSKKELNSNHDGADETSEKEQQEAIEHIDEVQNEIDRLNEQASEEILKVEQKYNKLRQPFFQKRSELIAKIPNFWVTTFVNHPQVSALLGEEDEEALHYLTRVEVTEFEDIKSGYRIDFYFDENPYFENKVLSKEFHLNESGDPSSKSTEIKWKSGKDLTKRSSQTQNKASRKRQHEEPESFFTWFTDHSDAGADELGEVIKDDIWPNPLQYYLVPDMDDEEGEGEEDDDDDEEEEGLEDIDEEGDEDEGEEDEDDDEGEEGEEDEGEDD
# Chain of 14-3-3 protein zeta/delta (human) (P63104 whole entry, stated change not applied): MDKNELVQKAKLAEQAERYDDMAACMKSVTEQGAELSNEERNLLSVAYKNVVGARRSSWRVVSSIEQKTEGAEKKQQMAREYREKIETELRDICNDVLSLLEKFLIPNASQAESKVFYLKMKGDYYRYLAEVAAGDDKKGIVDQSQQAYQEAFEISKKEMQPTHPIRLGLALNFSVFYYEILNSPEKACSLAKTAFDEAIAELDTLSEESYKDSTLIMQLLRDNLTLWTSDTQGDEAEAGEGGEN
# Chain of Thrombospondin-1 (human) (P07996 19-1170 limits assumed): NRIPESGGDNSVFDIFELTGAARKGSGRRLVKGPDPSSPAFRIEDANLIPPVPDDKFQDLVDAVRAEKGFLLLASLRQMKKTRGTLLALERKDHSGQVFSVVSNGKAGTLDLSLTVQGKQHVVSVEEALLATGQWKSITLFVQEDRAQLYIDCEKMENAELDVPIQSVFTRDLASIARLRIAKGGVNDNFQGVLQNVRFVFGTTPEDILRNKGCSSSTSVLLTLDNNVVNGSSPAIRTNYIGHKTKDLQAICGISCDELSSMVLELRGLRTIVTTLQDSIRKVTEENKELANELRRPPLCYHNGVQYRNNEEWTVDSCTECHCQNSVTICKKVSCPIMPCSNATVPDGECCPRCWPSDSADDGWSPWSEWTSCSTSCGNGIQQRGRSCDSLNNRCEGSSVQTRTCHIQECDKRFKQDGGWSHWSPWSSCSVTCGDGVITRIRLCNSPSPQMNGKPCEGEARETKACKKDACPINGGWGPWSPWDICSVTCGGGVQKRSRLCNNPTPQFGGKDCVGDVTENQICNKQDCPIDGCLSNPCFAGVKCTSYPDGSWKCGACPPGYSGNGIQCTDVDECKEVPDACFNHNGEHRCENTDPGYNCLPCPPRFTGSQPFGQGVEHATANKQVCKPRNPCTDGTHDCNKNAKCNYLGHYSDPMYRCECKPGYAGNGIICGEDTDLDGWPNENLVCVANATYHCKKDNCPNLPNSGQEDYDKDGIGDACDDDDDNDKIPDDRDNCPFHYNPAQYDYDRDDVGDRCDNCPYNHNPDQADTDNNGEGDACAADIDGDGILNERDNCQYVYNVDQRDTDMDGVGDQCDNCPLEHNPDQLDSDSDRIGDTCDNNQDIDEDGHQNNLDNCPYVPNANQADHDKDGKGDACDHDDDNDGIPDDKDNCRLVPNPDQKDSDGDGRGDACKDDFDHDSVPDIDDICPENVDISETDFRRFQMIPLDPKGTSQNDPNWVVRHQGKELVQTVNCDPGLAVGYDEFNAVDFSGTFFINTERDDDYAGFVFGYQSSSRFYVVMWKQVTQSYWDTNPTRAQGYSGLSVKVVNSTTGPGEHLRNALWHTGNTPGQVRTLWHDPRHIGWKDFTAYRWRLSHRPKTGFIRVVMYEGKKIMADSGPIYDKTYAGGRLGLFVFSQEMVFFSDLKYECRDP
# Chain of Nucleolin (human) (P19338 2-710 limits assumed): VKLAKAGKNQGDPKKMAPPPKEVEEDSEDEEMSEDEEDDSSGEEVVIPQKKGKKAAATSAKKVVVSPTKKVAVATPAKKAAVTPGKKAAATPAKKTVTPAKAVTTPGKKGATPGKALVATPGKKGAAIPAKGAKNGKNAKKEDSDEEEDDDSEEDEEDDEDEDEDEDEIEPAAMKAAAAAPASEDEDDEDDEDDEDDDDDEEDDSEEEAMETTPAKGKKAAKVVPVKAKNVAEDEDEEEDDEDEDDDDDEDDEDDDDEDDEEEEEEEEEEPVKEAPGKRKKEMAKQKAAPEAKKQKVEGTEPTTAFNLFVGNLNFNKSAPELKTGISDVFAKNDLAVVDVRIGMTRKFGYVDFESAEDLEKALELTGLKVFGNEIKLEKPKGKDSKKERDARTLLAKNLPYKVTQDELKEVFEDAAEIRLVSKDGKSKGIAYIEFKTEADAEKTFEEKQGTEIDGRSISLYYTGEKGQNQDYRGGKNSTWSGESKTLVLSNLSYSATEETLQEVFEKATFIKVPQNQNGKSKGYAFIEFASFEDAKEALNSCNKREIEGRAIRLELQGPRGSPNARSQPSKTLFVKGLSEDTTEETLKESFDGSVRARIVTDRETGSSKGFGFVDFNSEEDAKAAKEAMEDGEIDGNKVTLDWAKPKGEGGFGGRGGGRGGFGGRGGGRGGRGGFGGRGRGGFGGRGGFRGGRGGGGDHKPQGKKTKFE
# Chain of Calreticulin (human) (P27797 18-417 limits assumed): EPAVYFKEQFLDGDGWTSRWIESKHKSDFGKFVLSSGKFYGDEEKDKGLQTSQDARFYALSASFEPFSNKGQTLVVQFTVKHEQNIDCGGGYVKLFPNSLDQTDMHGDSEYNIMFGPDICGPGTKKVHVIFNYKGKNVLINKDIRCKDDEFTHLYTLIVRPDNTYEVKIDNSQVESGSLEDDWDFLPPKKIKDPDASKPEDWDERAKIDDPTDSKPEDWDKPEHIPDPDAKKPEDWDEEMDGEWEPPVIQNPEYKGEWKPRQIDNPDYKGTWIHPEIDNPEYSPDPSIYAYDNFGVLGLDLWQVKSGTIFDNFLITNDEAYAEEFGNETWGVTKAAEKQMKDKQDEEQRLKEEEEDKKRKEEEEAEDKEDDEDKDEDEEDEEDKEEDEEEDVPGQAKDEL
# Chain of Cofilin-1 (human) (P23528 2-166 limits assumed): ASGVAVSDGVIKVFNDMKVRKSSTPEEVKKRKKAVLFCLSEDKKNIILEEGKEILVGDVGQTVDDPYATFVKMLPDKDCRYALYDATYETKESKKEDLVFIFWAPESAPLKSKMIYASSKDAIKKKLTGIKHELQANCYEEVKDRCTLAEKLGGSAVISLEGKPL
# Chain of Cartilage oligomeric matrix protein (human) (P49747 21-757 limits assumed): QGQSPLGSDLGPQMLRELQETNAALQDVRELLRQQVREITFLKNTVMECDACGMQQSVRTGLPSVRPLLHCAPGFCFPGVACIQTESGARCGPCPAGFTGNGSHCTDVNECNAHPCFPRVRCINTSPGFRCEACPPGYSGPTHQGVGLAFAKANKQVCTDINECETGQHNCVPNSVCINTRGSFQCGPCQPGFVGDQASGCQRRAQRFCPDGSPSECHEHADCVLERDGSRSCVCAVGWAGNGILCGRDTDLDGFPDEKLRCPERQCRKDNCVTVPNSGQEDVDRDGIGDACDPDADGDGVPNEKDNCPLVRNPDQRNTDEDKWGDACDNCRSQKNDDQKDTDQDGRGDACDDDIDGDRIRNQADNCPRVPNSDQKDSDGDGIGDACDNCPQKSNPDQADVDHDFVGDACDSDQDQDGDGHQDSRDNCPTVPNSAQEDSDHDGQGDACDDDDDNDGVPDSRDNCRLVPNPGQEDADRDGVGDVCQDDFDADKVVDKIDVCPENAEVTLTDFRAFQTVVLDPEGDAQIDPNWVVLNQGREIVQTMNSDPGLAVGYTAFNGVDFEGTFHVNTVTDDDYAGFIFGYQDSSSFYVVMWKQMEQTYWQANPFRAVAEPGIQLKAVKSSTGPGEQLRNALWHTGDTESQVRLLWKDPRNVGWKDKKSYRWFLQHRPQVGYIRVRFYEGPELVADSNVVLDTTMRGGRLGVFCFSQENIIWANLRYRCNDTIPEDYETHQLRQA
# Chain of Tropomyosin alpha-4 chain (human) (P67936 2-248 limits assumed): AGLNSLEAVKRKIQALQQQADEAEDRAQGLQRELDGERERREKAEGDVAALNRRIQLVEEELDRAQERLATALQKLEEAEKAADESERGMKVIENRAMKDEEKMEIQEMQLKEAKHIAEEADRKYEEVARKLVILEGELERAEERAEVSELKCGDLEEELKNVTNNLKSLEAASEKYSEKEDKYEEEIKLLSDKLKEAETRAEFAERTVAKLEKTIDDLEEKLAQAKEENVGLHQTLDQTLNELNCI
# Chain of Thymosin alpha-1 (human) (P06454 other isoform, or with tags, fused parts or gaps limits assumed): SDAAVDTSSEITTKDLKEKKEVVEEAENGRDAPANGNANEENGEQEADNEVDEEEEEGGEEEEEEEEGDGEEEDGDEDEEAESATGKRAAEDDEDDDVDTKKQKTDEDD
# Chain of Acidic leucine-rich nuclear phosphoprotein 32 family member A (human) (P39687 whole entry, the tested form may be a part): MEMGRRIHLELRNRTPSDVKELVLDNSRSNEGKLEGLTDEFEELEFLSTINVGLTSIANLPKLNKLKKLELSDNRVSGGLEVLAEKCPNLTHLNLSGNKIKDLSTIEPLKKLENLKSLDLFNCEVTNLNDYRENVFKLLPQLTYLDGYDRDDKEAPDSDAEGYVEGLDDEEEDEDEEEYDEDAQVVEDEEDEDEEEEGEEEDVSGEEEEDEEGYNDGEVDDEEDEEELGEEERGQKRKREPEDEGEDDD
substance,measurement,setting,value
PIF15 affinity resin (Cys-C6 spacer-PIF15 conjugated to agarose) (peptide),Ave,[1],2
same,Inject 1,[1],2
same,Inject 2,[1],2
same,Inject 3,[1],2
same,Ave,Thymosin alpha-1 (human),3
same,Inject 1,Thymosin alpha-1 (human),2
same,Inject 2,Thymosin alpha-1 (human),2
same,Inject 3,Thymosin alpha-1 (human),4
same,Ave,[2],1
same,Inject 1,[2],1
same,Inject 2,[2],1
same,Inject 3,[2],1
same,Ave,[3],4
same,Inject 1,[3],4
same,Inject 2,[3],4
same,Inject 3,[3],5
same,Ave,[4],2
same,Inject 1,[4],2
same,Inject 2,[4],2
same,Inject 3,[4],2
same,Ave,[5],1
same,Inject 1,[5],1
same,Inject 2,[5],1
same,Inject 3,[5],1
same,Ave,Calreticulin (human),2
same,Inject 1,Calreticulin (human),2
same,Inject 2,Calreticulin (human),2
same,Inject 3,Calreticulin (human),2
same,Ave,[6],3
same,Inject 1,[6],3
same,Inject 2,[6],3
same,Inject 3,[6],3
same,Ave,[7],1
same,Inject 1,[7],1
same,Inject 2,[7],1
same,Inject 3,[7],1
same,Ave,Cofilin-1 (human),1
same,Inject 1,Cofilin-1 (human),1
same,Inject 2,Cofilin-1 (human),1
same,Inject 3,Cofilin-1 (human),1
same,Ave,Thrombospondin-1 (human),7
same,Inject 1,Thrombospondin-1 (human),7
same,Inject 2,Thrombospondin-1 (human),7
same,Inject 3,Thrombospondin-1 (human),7
same,Ave,[8],2
same,Inject 1,[8],2
same,Inject 2,[8],2
same,Inject 3,[8],2
same,Ave,[9],3
same,Inject 1,[9],3
same,Inject 2,[9],3
same,Inject 3,[9],3
same,Ave,Nucleolin (human),1
same,Inject 1,Nucleolin (human),1
same,Inject 2,Nucleolin (human),1
same,Inject 3,Nucleolin (human),1
same,Ave,[10],2
same,Inject 1,[10],2
same,Inject 2,[10],2
same,Inject 3,[10],2
same,Ave,Serum albumin (human),6
same,Inject 1,Serum albumin (human),3
same,Inject 2,Serum albumin (human),6
same,Inject 3,Serum albumin (human),8
